# Residue numbers refer to the chain shown, from its start.
# T1: Human Clec7A (human, UniProt Q9BXN2 1-247)
# T1 construct: also called hClec7A
# T1 sequence: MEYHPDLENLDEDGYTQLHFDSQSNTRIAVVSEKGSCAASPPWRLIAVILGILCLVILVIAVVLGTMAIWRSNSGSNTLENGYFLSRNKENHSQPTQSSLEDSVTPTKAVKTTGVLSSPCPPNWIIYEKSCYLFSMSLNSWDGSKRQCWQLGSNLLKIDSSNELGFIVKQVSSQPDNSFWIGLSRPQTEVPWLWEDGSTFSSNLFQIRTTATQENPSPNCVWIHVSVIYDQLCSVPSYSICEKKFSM
# T2: Human Clec12B (human, UniProt Q2HXU8 1-276)
# T2 construct: also called hClec12B
# T2 sequence: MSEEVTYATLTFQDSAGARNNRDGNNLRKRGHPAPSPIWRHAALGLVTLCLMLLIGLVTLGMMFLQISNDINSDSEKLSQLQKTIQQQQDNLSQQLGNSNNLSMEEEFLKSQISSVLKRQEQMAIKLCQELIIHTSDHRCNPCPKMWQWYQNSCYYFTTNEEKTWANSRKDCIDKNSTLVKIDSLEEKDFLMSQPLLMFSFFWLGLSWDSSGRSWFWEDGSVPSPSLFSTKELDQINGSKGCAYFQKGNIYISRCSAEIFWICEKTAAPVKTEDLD
# T3: Human CD94 (human, UniProt Q13241 1-179)
# T3 construct: also called hCD94
# T3 sequence: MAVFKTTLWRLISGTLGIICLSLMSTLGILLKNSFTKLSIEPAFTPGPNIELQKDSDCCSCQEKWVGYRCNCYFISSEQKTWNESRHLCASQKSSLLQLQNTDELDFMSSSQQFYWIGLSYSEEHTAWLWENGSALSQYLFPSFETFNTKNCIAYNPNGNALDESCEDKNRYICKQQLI
# T4: Human KLRF1 (human, UniProt Q9NZS2 1-231)
# T4 construct: also called hKLRF1
# T4 sequence: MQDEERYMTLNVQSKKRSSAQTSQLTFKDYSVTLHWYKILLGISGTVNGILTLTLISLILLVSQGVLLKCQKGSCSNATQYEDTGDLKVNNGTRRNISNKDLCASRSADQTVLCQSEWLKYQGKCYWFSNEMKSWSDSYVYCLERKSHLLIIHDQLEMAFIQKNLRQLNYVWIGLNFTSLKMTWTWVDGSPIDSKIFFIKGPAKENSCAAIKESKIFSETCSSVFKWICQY
# T5: Human Clec4E (human, UniProt Q9ULY5 1-219)
# T5 construct: also called hClec4E
# T5 sequence: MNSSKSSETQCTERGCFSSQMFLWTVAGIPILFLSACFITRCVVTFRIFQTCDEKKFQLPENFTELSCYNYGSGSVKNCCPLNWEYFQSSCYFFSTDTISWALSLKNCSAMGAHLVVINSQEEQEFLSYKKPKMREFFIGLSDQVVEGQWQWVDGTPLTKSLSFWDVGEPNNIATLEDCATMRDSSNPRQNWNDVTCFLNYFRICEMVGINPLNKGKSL
# T6: cynomolgus CD161 (cynomolgus)
# T6 construct: UniProt A0A2K5WYI1; also called cynoCD161
# T6 chain: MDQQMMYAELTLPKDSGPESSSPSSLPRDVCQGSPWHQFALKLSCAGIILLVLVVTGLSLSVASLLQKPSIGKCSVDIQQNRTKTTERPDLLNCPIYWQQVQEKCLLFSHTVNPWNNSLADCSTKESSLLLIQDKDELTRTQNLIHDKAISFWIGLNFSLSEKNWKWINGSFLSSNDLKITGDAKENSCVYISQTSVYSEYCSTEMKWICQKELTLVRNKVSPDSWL
# T7: Human CD209 (human, UniProt Q9NNX6 1-404)
# T7 construct: also called hCD209
# T7 sequence: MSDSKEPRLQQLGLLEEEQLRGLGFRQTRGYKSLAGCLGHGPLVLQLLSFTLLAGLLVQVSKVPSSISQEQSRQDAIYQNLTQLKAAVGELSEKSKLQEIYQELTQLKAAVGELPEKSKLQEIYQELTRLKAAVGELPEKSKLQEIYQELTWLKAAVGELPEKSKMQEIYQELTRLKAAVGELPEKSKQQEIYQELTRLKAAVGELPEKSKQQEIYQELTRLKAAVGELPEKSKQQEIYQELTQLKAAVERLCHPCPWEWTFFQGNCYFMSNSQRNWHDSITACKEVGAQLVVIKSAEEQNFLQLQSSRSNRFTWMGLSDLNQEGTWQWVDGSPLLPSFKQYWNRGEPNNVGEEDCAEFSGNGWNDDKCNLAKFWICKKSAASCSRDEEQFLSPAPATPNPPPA
# T8: Human Clec10A (human, UniProt Q8IUN9 1-316)
# T8 construct: also called hClec10A
# T8 sequence: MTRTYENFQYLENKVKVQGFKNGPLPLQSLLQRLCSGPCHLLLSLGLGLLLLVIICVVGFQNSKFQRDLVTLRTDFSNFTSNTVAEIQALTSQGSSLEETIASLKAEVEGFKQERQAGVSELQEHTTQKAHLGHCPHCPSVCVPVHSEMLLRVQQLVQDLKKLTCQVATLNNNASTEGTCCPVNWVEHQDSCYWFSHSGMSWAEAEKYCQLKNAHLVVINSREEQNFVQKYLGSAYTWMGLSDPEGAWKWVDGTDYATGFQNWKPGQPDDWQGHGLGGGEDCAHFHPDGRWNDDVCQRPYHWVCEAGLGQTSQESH
# B1: KW1.2.1 (antibody, V domains shown)
# VH: EVQLVESGGGLVQPGGSLRLSCAASGSTFSSYAMSWVRQAPGKGLEWVSTISGSGGSTYYADSVKGRFTISRDNSRNTLYLQMNSLRAEDTAVYYCARGGLIPSGFDYWGQGTLVTVSS
# VL: DIQMTQSPSSPSASVGDRVTITCRASQSISSYLNWYQQKPGKAPKLLIYAASSLLSGVPSRFSGSGSGTDFTLTISSLQPEDFATYYCQQTYSTPLTFGQGTKVEIK
# B2: KM12.2.3 (antibody, human IgG1, V domains shown)
# VH: EVQLVESGGGLVQPGGSLRLSCAASGFTFSSYAMSWIRQAPGKGLEWVSAISGSGGSIYYADSVKGRFTISRDNSKNTLYLQMNSLRAEDTAVYYCARGYSDSYFYGPYYTFDYWGQGTLVTVSS
# VL: B1 VL with P11L, S28G, L55Q, P59S, T91S, S93N
# B3: KW7.2.2 (antibody, V domains shown)
# VH: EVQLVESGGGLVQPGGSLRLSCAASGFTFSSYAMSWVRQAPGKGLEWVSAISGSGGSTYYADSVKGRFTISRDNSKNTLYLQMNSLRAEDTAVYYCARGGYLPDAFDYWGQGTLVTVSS
# VL: B1 VL with P11L, K45R, L46F, L55Q
# B4: KW1.3.12 (antibody, human IgG1, V domains shown)
# VH: B1 VH with S27F
# VL: B1 VL with P11L, T94A
# B5: KM12.4.7 (antibody, V domains shown)
# VH: B2 VH with S21P, N84D
# VL: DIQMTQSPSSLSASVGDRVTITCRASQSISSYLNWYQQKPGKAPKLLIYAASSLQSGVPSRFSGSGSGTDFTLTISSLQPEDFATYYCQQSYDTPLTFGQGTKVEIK
# B6: KW7.3.7 (antibody, V domains shown)
# VH: B1 VH with S27F, T50A, I51T, V64A, R76K, L101Y, I102L, S104D, G105A, Q111R
# VL: B1 VL with P11L, R24W, K39E, L55Q
# B7: KW9.3.3 (antibody, V domains shown)
# VH: EVQLVESGGGLVQPGGSLRLSCAASGFTFSSYAMSWVRQAPGKGLEWVSAISGSGGRTYYADSVKGRFTISRDNSKNTLYLQMNSLRAEDTAMYYCARGPGYMYLYGDSFFEYWGQGTLVTVSS
# VL: B1 VL with T5A, P11L, S28G, L55Q, S67Y, T91S
# B8: KW17.3.4 (antibody, V domains shown)
# VH: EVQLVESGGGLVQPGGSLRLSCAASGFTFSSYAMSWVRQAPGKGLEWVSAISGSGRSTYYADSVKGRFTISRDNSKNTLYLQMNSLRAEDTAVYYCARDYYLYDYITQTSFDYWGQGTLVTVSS
# VL: QSVLTQPPSVSGAPGQRVTISCTGSSSNIGAGYDVHWYQQLPGTAPKLLIYGNSNRPSGVPDRFSGSQSGTSASLAITGLQAEDEADYYCQSYNSGHTVFGGGTQLTVL
# Molecular target: T1, Human Clec7A
# Experiment: flow, Jurkat, 100 nM Ab
row,Binder,MFI normalized to WT
1,B1,1.25
2,B2,1.11
3,B3,1.46
4,B4,1.38
5,B5,1.36
6,B6,1.18
7,B7,1.03
8,B8,1.16

# Molecular target: T2, Human Clec12B
# Experiment: flow, Jurkat, 100 nM Ab
row,Binder,MFI normalized to WT
1,B1,1.11
2,B2,1.33
3,B3,1.37
4,B4,1.1
5,B5,1.12
6,B6,1.05
7,B7,0.94
8,B8,1.09

# Molecular target: T9, Human OLR1 (human, UniProt P78380 1-273)
# T9 construct: also called hOLR1
# Experiment: flow, Jurkat, 100 nM Ab
row,Binder,MFI normalized to WT
1,B1,1.28
2,B2,1.33
3,B3,1.42
4,B4,1.24
5,B5,1.3
6,B6,1.15
7,B7,0.9
8,B8,1.03

# Molecular target: T3, Human CD94
# Experiment: flow, Jurkat, 100 nM Ab
row,Binder,MFI normalized to WT
1,B1,1.13
2,B2,1.36
3,B3,1.29
4,B4,1.07
5,B5,1.2
6,B6,1.01
7,B7,0.84
8,B8,0.97

# Molecular target: T4, Human KLRF1
# Experiment: flow, Jurkat, 100 nM Ab
row,Binder,MFI normalized to WT
1,B1,1.14
2,B2,1.18
3,B3,1.18
4,B4,1.02
5,B5,1.14
6,B6,1.19
7,B7,0.8
8,B8,0.91

# Molecular target: T5, Human Clec4E
# Experiment: flow, Jurkat, 100 nM Ab
row,Binder,MFI normalized to WT
1,B1,0.99
2,B2,1.68
3,B3,1.1
4,B4,1.17
5,B5,1.01
6,B6,0.88
7,B7,0.85
8,B8,0.97

# Molecular target: T6, cynomolgus CD161
# Experiment: flow, Jurkat, 100 nM Ab
row,Binder,MFI normalized to WT
1,B1,103
2,B2,11.9
3,B3,108
4,B4,117
5,B5,116
6,B7,0.89
7,B8,1.03

# Molecular target: T10, human CD161 (human, UniProt Q12918 1-225)
# T10 construct: UniProt Q12918; also called hCD161; KLRB1
# Experiment: flow, Jurkat, 100 nM Ab
row,Binder,MFI normalized to WT
1,B1,172
2,B2,122
3,B3,145
4,B4,163
5,B5,166
6,B7,150
7,B8,143

# Molecular target: T11, Human Clec9A (human, UniProt Q6UXN8 1-241)
# T11 construct: also called hClec9A
# T11 sequence (Q6UXN8 whole entry): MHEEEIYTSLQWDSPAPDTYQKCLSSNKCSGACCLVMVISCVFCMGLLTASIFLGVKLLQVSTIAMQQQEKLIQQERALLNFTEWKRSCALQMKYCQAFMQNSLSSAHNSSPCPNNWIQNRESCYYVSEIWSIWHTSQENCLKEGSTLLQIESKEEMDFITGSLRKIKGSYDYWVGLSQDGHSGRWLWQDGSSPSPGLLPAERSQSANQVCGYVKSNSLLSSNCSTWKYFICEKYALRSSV
# Experiment: flow, Jurkat, 100 nM Ab
row,Binder,MFI normalized to WT
1,B1,1.24
2,B2,1.42
3,B3,1.42
4,B4,1.11
5,B5,1.17
6,B6,1.01
7,B7,0.94
8,B8,1.13

# Molecular target: T7, Human CD209
# Experiment: flow, Jurkat, 100 nM Ab
row,Binder,MFI normalized to WT
1,B1,0.96
2,B2,1.48
3,B3,1
4,B4,0.91
5,B5,0.97
6,B6,0.85
7,B7,0.81
8,B8,0.94

# Molecular target: T8, Human Clec10A
# Experiment: flow, Jurkat, 100 nM Ab
row,Binder,MFI normalized to WT
1,B1,0.94
2,B2,1.44
3,B3,0.9
4,B4,0.9
5,B5,1.01
6,B6,0.89
7,B7,0.86
8,B8,0.98

# — US20210122826A1 (MIT, published 2021)
